Legend:
[1] = biological target: Fbxl8 (UniProt Q8CIG9); test: anti-HA co-IP, blot for cyclin D3; details: reference: wild type Flag-cyclin D3; sites T283
[2] = biological target: Fbxl8 (UniProt Q8CIG9); test: co-immunoprecipitation; details: reference: wild type cyclin D3; sites T283

Substance | binding against the reference [1] | binding against the reference [2]
cyclin D3 (from UniProt P30282) Flag-cyclin D3 T283A | weaker | 
cyclin D3 (from UniProt P30282) T283A |  | lost

Reference: article PMC7808939
